# From the supplement of paper PMC9170038
# System: MS2 coat protein
# Test: apparent KD of MS2 coat protein; designed switch direction (-1 OFF switch, 1 ON switch): -1; higher = weaker reporter binding
# How it was run: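 SNAP-549-labelled MS2 coat protein was titrated, doubling from 0.7 or 1.5 nM to 3 µM, over designed RNA switches transcribed on Illumina chips by stalled E. coli RNA polymerase. Runs were done without input, with 200 uM small-molecule ligand, or with an oligonucleotide input. Apparent KD is the per-design median over clusters of curve-fitted normalised fluorescence.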
# [1] = input ligand: microRNA oligo, concentration not stated
# [2] = Eterna round: R95, input ligand: FMN 200 uM
# [3] = Eterna round: R95, input ligand: microRNA oligo, concentration not stated
# [4] = Eterna round: R95, input ligand: none
Sequence,apparent KD of MS2 coat protein (input ligand: FMN 200 uM),apparent KD of MS2 coat protein [1],apparent KD of MS2 coat protein (input ligand: none),apparent KD of MS2 coat protein [2],apparent KD of MS2 coat protein [3],apparent KD of MS2 coat protein [4]
"GAAGAAAACCAAGGAUAUCGGAAAGGAAGUGUACGAGAAGGUGGACAUGGACAUGAGGAUCACCCAUGUGGCCCGAUGCCGUGG [PowerStrip EXNG 1.5] (Eterna round: R96, puzzle: Exclusion NG 1)",0.0548 µM,0.0335 µM,0.0381 µM,,,
GAAAAGGUAGGAUAUACGAAAAUAAAGGGUAGAAAAAAAACACAUGAGGAUCACCCAUGUAGAAGGACCAAAAG [salish99_ex2_r3_083] (puzzle: Exclusion 2),,,,0.0683 µM,0.0334 µM,0.0364 µM
"ACAAGCUUUUUGUUCGUCUUAUAAUAUUCAAUAAGGAUAACAUGAGGAUCACCCAUGUAACAAAGACGGACUCAUGU [Sesor Array 15 - Jieux - Sensor v3, turn-off variant 2] (puzzle: Sensor v3, turn-off variant 2)",,,,0.0172 µM,0.133 µM,0.013 µM
"CUGUGCACGCUGCGGUCCUACAUGAGGAUCACCCAUGUGGUCUGGUGGCGUGGGUCGCCGGACUUGGCUCGUCUUGG [salish99_S_TOV1_R5_025] (Eterna round: R97, puzzle: Sensor, turn-off variant 1)",0.0153 µM,,0.0159 µM,,,
"GCCGGAUAAGUGAGGAUAUACCUAUGGAUACAUAGGUAGAAGGCACAUGAGGAUCACCCAUGUACCUCUCCGGC [JL-BMX4-4.18 Eli mod] (Eterna round: R97, puzzle: Brourd's mod of Exclusion 4)",0.0875 µM,,0.0148 µM,,,
"GCACAGGCAGGAUAUACAUGAGGAUCACCCAUGUGAUCCCUUAGGUACAAAAGUACUAGUAGAAGGGCCUGUGC [Omei Ex3 Model Bachelor's Dilema v49] (Eterna round: R97, puzzle: Exclusion 3)",0.403 µM,,1.04 µM,,,
"AAUAACAAGCUGAUCCUAAACAUGAGGAUCACCCAUGUGUUCGUCUUGUAAAGUACUAUCACGAAAGUGAUAGUACA (Eterna round: R97, puzzle: Sensor, turn-off variant 1)",0.0752 µM,,0.08 µM,,,
AAAAAACAAGGAUAUACGAAGGAUGAUUAUCUUAAUUUUUGACAUGAGGAUCACCCAUGUAGAAGGUGUUAAAA [JR_Exclusion2_Sub008] (puzzle: Exclusion 2),,,,0.125 µM,0.0515 µM,0.0529 µM
"UUAAUACAUGUAGGAUAUGCGUGGCGAAGCUAUGCAGAAGGACAUGAGGAUCACCCAUGUUCCAGCGUCCGCGUACGGAUGCAA [JL Eng1 1.21 mod 12] (Eterna round: R96, puzzle: Exclusion NG 1)",0.0142 µM,0.0124 µM,0.0142 µM,,,
GCAGUGCGAGGAUAUACAUGAGGAUCACCCAUGUGAGAGAAAUAAGUGAGGAAGAAAAGUAGAAGGCGCGUUGG [Mat - Exclusion 3 - Mod of Salish D69] (puzzle: Exclusion 3),,,,0.0952 µM,0.0408 µM,0.0691 µM
GAGUGACAUGAGGAUCACCCAUGUAAGGAUAUACGGUUGGUAGAGAGAGGGCGAAAGGGUAGAAGGUACGAAGG [JR_Exclu1_Sub054] (puzzle: Exclusion 1),,,,0.0646 µM,0.076 µM,0.0952 µM
"UAUAUGUCAGGAUAUCGAUUAGAACAGAAUUUAACAAUAGUCGAGAAGGGACAUGAGGAUCACCCAUGUUCAAC [JR_Ex4_Sub021] (Eterna round: R97, puzzle: Exclusion 4)",0.0417 µM,,0.0205 µM,,,
"UGCCUAUGAGGAUAUACAUUGAAUAAGAUUCAUGUAAAACUACAUGAGGAUCACCCAUGUAGAAGGCAUGGGCU [Mat - Exclusion 2 - JL Mod - D70] (Eterna round: R97, puzzle: Exclusion 2)",0.029 µM,,0.0191 µM,,,
GUUGCGUUUGUGAGGAUAUGCUGGUCCUUGGUUCGGCAGAAGGCACAUGAGGAUCACCCAUGUGGUGUUGUUCC [salish99_Bmod_ex4_052] (puzzle: Brourd's mod of Exclusion 4),,,,,0.0905 µM,
"ACAACAAGCUUUUUGUUCGUAGAACAUGAUGCUCUAGUCACAUGAGGAUCACCCAUGUCAACUAGAUAGAUAGUUGA [JR_SV3TOV2_Sub062] (puzzle: Sensor v3, turn-off variant 2)",,,,0.043 µM,0.0957 µM,0.0441 µM
"UAUAUAUAGUAAGGAUAUGUAUUAAUUUUAGAAACAGAAGGUACUGACAUGAGGAUCACCCAUGUUUUAGUGUGGGCAUGUAGA [JMF's solution 88] (Eterna round: R96, puzzle: Exclusion NG 1)",,0.0757 µM,,,,
UAUGGGUGUGUGAGGAUAUACGAAGGCAGUGGCCAGUAGAAGGUACAUGAGGAUCACCCAUGUGUCCAAAAGUG [Isonge] (puzzle: Brourd's mod of Exclusion 4),,,,,0.0139 µM,

Sequence,apparent KD of MS2 coat protein (input ligand: FMN 200 uM),apparent KD of MS2 coat protein [1],apparent KD of MS2 coat protein (input ligand: none),apparent KD of MS2 coat protein [2],apparent KD of MS2 coat protein [3],apparent KD of MS2 coat protein [4]
"GGUCAAGAACAGAUCCGCGCUGUCAUUGACCGCUCAUUUACAUGAGGAUCACCCAUGUUUUUUGCUUGUCUUGUUAC [Edrama] (puzzle: Sensor v3, turn-off variant 2)",,,,0.0196 µM,0.0883 µM,0.0182 µM
"UAUAUAUAGUAAGGAUAUGUAUAUAUUUAAUAAACAGAAGGUACUGACAUGAGGAUCACCCAUGUUUUAGUGUGGGCAUGUAGA [JMF's solution 63] (Eterna round: R96, puzzle: Exclusion NG 1)",,0.0599 µM,,,,
"ACUGGUCGAGGAUAUACAUGAGGAUCACCCAUGUGGUCACGUGACUUCGGUCACGAAUGUAGAAGGCGACCAGU [E3/3-A5] (Eterna round: R97, puzzle: Exclusion 3)",0.0614 µM,,0.188 µM,,,
AAUAAAGGAGGAUAUACUAAAAUAUGAAUAAAAUAAAUAAAACAUGAGGAUCACCCAUGUAGAAGGCCUAAUAA [JMF's Not so obvious solution 3] (puzzle: Exclusion 2),,,,0.0228 µM,0.0239 µM,0.0252 µM
"CAGUGCUGACGGAGAUCCAACAUGAGGAUCACCCAUGUCUCAAAAGCUUUUUGCUCGUCUUAUCCUCCUCAGUACUC [Mat - Sensor, turn-off var - Eli Mod - D57] (Eterna round: R97, puzzle: Sensor, turn-off variant 1)",0.0146 µM,,0.0192 µM,,,
"GGGCCCGGUGUGAGGAUAUUUGAAGUGAAAGCUUCGGAGAAGGCACAUGAGGAUCACCCAUGUAAGCCGGGCCC [-35.9, -33.8 kcal, A 26%, 3bis-0] (Eterna round: R97, puzzle: Brourd's mod of Exclusion 4)",0.0161 µM,,0.0134 µM,,,
CCUCCACAUGAGGAUCACCCAUGUCAGGAUAUCGUGUGUGCGUUUUCGGUCUUUCGCGCGAGAAGGGACGUCUG (puzzle: Exclusion 1),,,,,0.0288 µM,
AAGAAACAUGAGGAUCACCCAUGUGAGGAUAUGAAAAAGAAAAGAAAAGAAAGAAGACUCAGAAGGCACAAAGG [salish99-ex1_r3_022] (puzzle: Exclusion 1),,,,0.0333 µM,0.0485 µM,0.0457 µM
"GAUGGCUAAGGAUAUACAUAGAAGAAUUGAACUUGGAUUAUACAUGAGGAUCACCCAUGUAGAAGGUAGUCAUC [ExGluten 3 - Jieux - Exclusion 2] (Eterna round: R97, puzzle: Exclusion 2)",0.0829 µM,,0.0246 µM,,,
"UCGCUGCGAGGAUAUACAUGAGGAUCACCCAUGUGCGGGUCCGGGUCUUCGUCCAUUAGUAGAAGGCGCAGUGA [JL Laongeedie mod 4] (Eterna round: R96, puzzle: Exclusion 3)",0.705 µM,0.112 µM,0.119 µM,,,
"GGUAGCUGAGGAUAUGCAGACGACCCUCAGUGCUGGCUUGCACAUGAGGAUCACCCAUGUAGAAGGCAGAAGCU [Eternabot (L2) Solution 5] (Eterna round: R97, puzzle: Exclusion 2)",0.056 µM,,0.0575 µM,,,
"UUUAAUUGUCACAUGGGUGACAUGAGGAUCACCCAUGUCACAAGCUUUUUGCUCGUCUUAUAAUUAACCCAUGUGAC [Stov1/12-A1] (Eterna round: R97, puzzle: Sensor, turn-off variant 1)",0.0135 µM,,0.0137 µM,,,
"CAGUAUCUAGGAUAUACGCUGGGUACUAUUCUCAAGUCAGGACAUGAGGAUCACCCAUGUAGAAGGAGAAGCAU [EX2 A.28] (Eterna round: R97, puzzle: Exclusion 2)",0.0325 µM,,0.034 µM,,,
"GAAUAGGCAGGAUAUACAUGAGGAUCACCCAUGUGCCGGCGAAAGGUACGUUCGAAAGGUAGAAGGGCCUAAAC [ChP 13.04.2015 #7] (Eterna round: R96, puzzle: Exclusion 3)",0.176 µM,0.0367 µM,0.0418 µM,,,
"AAGCAGUCAGGAUAUCGUUAAUUUAGUUGUUUGUAUUAGUUCGAGAAGGGACAUGAGGAUCACCCAUGUAAGAA [Ex4 #43] (Eterna round: R97, puzzle: Exclusion 4)",0.0405 µM,,0.041 µM,,,
"UCUAGCUUUUUGCGUCAAGCAUUGAAGUCUGUGAUCGUUACAUGAGGAUCACCCAUGUAUGUUUUAUGUCGUCUUGU [JR_SV3TOV2_Sub099] (puzzle: Sensor v3, turn-off variant 2)",,,,0.0372 µM,0.0331 µM,0.0439 µM
UGUGCGUAUGUGAGGAUAUGCUGGUCCUUGGAUCGGCAGAAGGCACAUGAGGAUCACCCAUGUGGUGUCGUACU [salish99_Bmod_ex4_083] (puzzle: Brourd's mod of Exclusion 4),,,,,0.235 µM,
